Results on one substance are retold here after patent US20110123542A1.

The test addresses T1, CCR6 receptor on human cancer cell lines (PC3, HL60, HT-29, NB4) (human) (UniProt P51684).
T1 sequence (looked up): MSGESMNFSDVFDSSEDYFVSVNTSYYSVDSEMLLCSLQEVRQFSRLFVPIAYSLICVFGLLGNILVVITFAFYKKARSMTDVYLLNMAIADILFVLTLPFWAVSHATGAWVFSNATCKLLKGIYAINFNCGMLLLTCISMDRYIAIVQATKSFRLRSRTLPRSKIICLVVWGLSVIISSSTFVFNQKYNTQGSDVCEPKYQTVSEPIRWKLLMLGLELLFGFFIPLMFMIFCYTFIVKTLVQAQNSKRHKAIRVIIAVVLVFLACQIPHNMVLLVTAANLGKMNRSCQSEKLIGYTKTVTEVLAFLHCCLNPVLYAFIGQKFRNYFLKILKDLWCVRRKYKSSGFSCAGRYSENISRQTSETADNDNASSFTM
Kind of test: cell-based or functional assay.

Consider “CCL20 (PeproTech EC, London, UK) (from UniProt P78556 27-96) (ligand)”, for which the BrdU incorporation of PC3 cells, CCL20 5 and 50 ng/ml turned out to be 1.76 fold; the adhesion of HL60 cells to collagen I, CCL20 250 ng/ml was determined as 1.6 fold; the adhesion of HL60 cells to fibronectin, CCL20 500 ng/ml amounted to 2 fold; the adhesion of PC3 cells to collagen I, CCL20 50 ng/ml was 2.2 fold. The adhesion of PC3 cells to collagen I, CCL20 500 ng/ml was determined as 2.09 fold and the adhesion of PC3 cells to fibronectin, CCL20 500 ng/ml came out at 1.45 fold.
